Test results taken from PMC6561738 (Science Advances, 2019).

Key:
atomic force microscopy = target: the molecule itself; experiment: atomic force microscopy
SecA (wild type) = SecA (wild type) (E. coli, UniProt P10408 1-901); experiment: atomic force microscopy

Row | Binder | binding result (atomic force microscopy) | binding result (SecA (wild type))
1 | SecAC4Q801C, cross-linked dimeric species (SecA C98S, C885S, C887S, C896S, Q801C) (enzyme, cross-linked dimer (so in the source); the chemistry of the cross-link is not told) MLIKLLTKVFGSRNDRTLRRMRKVVNIINAMEPEMEKLSDEELKGKTAEFRARLEKGEVLENLIPEAFAVVREASKRVFGMRHFDVQLLGGMVLNERSIAEMRTGEGKTLTATLPAYLNALTGKGVHVVTVNDYLAQRDAENNRPLFEFLGLTVGINLPGMPAPAKREAYAADITYGTNNEYGFDYLRDNMAFSPEERVQRKLHYALVDEVDSILIDEARTPLIISGPAEDSSEMYKRVNKIIPHLIRQEKEDSETFQGEGHFSVDEKSRQVNLTERGLVLIEELLVKEGIMDEGESLYSPANIMLMHHVTAALRAHALFTRDVDYIVKDGEVIIVDEHTGRTMQGRRWSDGLHQAVEAKEGVQIQNENQTLASITFQNYFRLYEKLAGMTGTADTEAFEFSSIYKLDTVVVPTNRPMIRKDLPDLVYMTEAEKIQAIIEDIKERTAKGQPVLVGTISIEKSELVSNELTKAGIKHNVLNAKFHANEAAIVAQAGYPAAVTIATNMAGRGTDIVLGGSWQAEVAALENPTAEQIEKIKADWQVRHDAVLEAGGLHIIGTERHESRRIDNQLRGRSGRQGDAGSSRFYLSMEDALMRIFASDRVSGMMRKLGMKPGEAIEHPWVTKAIANAQRKVESRNFDIRKQLLEYDDVANDQRRAIYSQRNELLDVSDVSETINSIREDVFKATIDAYIPPQSLEEMWDIPGLQERLKNDFDLDLPIAEWLDKEPELHEETLRERILAQSIEVYQRKEEVVGAEMMRHFEKGVMLQTLDSLWKEHLAAMDYLRQGIHLRGYAQKDPKCEYKRESFSMFAAMLESLKYEVISTLSKVQVRMPEEVEELEQQRRMEAERLAQMQQLSHQDDDSAAAAALAAQTGERKVGRNDPSPSGSGKKYKQSHGRLQ | binds | 
2 | SecYEG translocon (SecY C329S, C385S; His-tagged SecE; SecG) (complex) chain 1: MAKQPGLDFQSAKGGLGELKRRLLFVIGALIVFRIGSFIPIPGIDAAVLAKLLEQQRGTIIEMFNMFSGGALSRASIFALGIMPYISASIIIQLLTVVHPTLAEIKKEGESGRRKISQYTRYGTLVLAIFQSIGIATGLPNMPGMQGLVINPGFAFYFTAVVSLVTGTMFLMWLGEQITERGIGNGISIIIFAGIVAGLPPAIAHTIEQARQGDLHFLVLLLVAVLVFAVTFFVVFVERGQRRIVVNYAKRQQGRRVYAAQSTHLPLKVNMAGVIPAIFASSIILFPATIASWFGGGTGWNWLTTISLYLQPGQPLYVLLYASAIIFFSFFYTALVFNPRETADNLKKSGAFVPGIRPGEQTAKYIDKVMTRLTLVGALYITFISLIPEFMRDAMKVPFYFGGTSLLIVVVVIMDFMAQVQTLMMSSQYESALKKANLKGYGR chain 2: MSANTEAQGSGRGLEAMKWVVVVALLLVAIVGNYLYRDIMLPLRALAVVILIAAAGGVALLTTKGKATVAFAREARTEVRKVIWPTRQETLHTTLIVAAVTAVMSLILWGLDGILVRLVSFITGLRF chain 3: MYEALLVVFLIVAIGLVGLIMLQQGKGADMGASFGAGASATLFGSSGSGNFMTRMTALLATLFFIISLVLGNINSNKTNKGSEWENLSAPAKTEQTQPAAPAKPTSDIPN |  | binds
